Measured values taken from patent publication US9289468B2, “Fusion protein comprising circularly permuted form of trail/Apo2L, coding gene and use thereof” (Beijing Sunbio Biotech Co. Ltd., priority 2011, dated 2016).

Columns and labels:
[1] = test system: RPMI8226 tumor; assay: Combination with melphalan and prednisone on human multiple myeloma xenograft tumor; format: in vivo, Balb/c nu athymic nude mice; settings: NCPT-1.M1 15 mg/kg ip x10 days; melphalan 0.75 mg/kg po x5 days; prednisone 10 mg/kg po x10 days
Description: Male Balb/c nu athymic nude mice (Beijing Huafukang Biotechnology Co., Ltd.) were subcutaneously inoculated with 5×10^6 RPMI8226 tumor cells/mouse. […] The tumor volumes were measured with a caliper every two days.

[2] = test system: human multiple myeloma cell RPMI 8226; assay: Morphological observation of induced apoptosis (MGG staining); format: cell-based; settings: 200 ng/ml, 3 h
Description: FIG. 3. The morphological change of the apoptosis of human multiple myeloma cell RPMI 8226 induced by NCPT-1.M1. The cells were incubated with NCPT-1.M1 (200 ng/ml) for 3 h and then prepared as smears before MGG staining.
The RPMI 8226 cells (ATCC) were cultured in cell culture flasks until logarithmic growth phase, collected by centrifugation, resuspended with complete medium (10% FBS-RPMI1640) at 1×10^6/well, added into 6-well cell culture plate (Costar). The NCPT-1.M1 was diluted with complete medium, added to a final concentration of 200 ng/ml, incubated at 37° C. in 5% CO2 incubator for 3 h. The cells were collected, prepared as smears, fixed with methanol before May-Grünwald-Giemsa (MGG, May-Grünwald stain, commercial available from Beijing ZhongYe HengYuan Chemicals, Giemsa stain, commercial available from Solarbio) staining.

[3] = test system: human COLO 205 xenograft tumor; assay: Inhibitory activity on human colon cancer xenograft tumors; format: in vivo, Balb/c nu mice
Description: 4 to 5 weeks old Balb/c nu mice ♂ (Institute of Experimental Animals, Chinese Academy of Medical Sciences) were subcutaneously inoculated with COLO 205 human colon tumor tissue pieces. When the tumor grew to the volume of 120 mm3, the tumor-bearing mice were divided into 4 groups (n=7/group), which were intraperitoneally injected with normal saline (negative control group), NCPT-1.M1 5 mg/kg, NCPT-1.M1 15 mg/kg and wtTRAIL 15 mg/kg once a day for 10 consecutive days. […] During the experiment, the tumor length diameter (a) and wide diameter (b) were measured every two days with a vernier caliper, and tumor volume (TV) was calculated according to the following formula: TV=½×a×b^2; From the above, the relative tumor volume (RTV) was calculated according to following formula: RTV=Vt/V0. Wherein V0 is the tumor volume measured on the day of the administration, but before administration (i.e., d0), and Vt is the tumor volume measured every time. The relative tumor proliferation rate T/C (%) is used as an evaluation index. Evaluation criteria: T/C (%)>40% means no effect; T/C (%)≦40% and the statistical significance of P<0.05 means being effective.
(§1) T/C %=RTVT/RTVC*100%. (RTVT: RTV of the treatment group; […]: RTV of the negative control group).

[4] = test system: human multiple myeloma cell line U266; assay: Combination with melphalan, cell survival (ATPlite); format: cell-based
Description: FIG. 9. […] U266 cells are insensitive to CPT. At the concentration of 1 μg/ml, NCPT-1.M1 alone has a mild killing effect on U266 (<20%), but with the presence of melphalan (12.5˜50 μg/ml), both of them can cause enhanced killing effect. The cell viability was assayed with ATPlite luminescent system (PerkinElmer), the data as shown in this figure are all represented as the mean±standard deviation, n=4, #P<0.05, ##P<0.01 vs. melphalan group; *P<0.05 vs. NCPT-1.M1 group.

[5] = test system: H460 cells; assay: Cell survival by MTT assay with or without Caspase-8 inhibitor zIETD-fmk; format: cell-based, human; settings: 24 h
Description: H460 cells were incubated with NCPT-1.M1 (1.2 or 10 ng/ml) in the presence or absence of Caspase-8 inhibitor zIETD-fmk (concentration of 30 μmmol/L, added 1 h earlier than NCPT-1.M1) for 24 h, and then cell survival rate was measured by MTT assay.
H460 cells were incubated with NCPT-1.M1 of 1.2 ng/ml and 10 ng/ml (the culture method is same as the above) for 24 h, and cell survival rates measured by MTT assay were 60% and 16%, respectively. […] Caspase-8 inhibitor zIETD-fmk (Santa Cruz) was added, and 1 h later, 1.2 ng/ml or 10 ng/ml NCPT-1.M1 was added and co-incubated for 24 h, then, the resulting cell survival rates were 100% and 90%, respectively.

[6] = test system: NCI-H460 human lung tumor; assay: Combination with paclitaxel and carboplatin on human lung cancer xenograft tumor; format: in vivo, Balb/c nu athymic nude mice; settings: H460 tumor nude mice
Description: 5-6 weeks old Balb/c nu athymic nude mice ♂ (provided by Institute of Experimental Animals, Chinese Academy of Medical Sciences) were subcutaneously inoculated with NCI-H460 human lung tumor. When the tumor grew to the size of about 150 mm3, the mice were divided into following and administered: normal saline control group (ip.), NCPT-1.M1 monotherapy group (15 mg/kg, i.p., once a day for 9 consecutive days), chemotherapy group (PC regimen: paclitaxel 30 mg/kg i.p. and carboplatin 60 mg/kg i.p., administered once on the first day), NCPT-1.M1 combination chemotherapy group (administration manner and dosage of each drug are same as the above). During the experiment, the tumor length diameter (a) and wide diameter (b) were measured every two days with a vernier caliper, and tumor volume (, TV) is calculated according to the following formula: TV=½×a×b^2. From the above, the relative tumor volume (RTV) was calculated according to following formula: RTV=Vt/V0. Wherein V0 is the tumor volume measured on the day of the administration, but before administration (i.e., d0), and Vt is the tumor volume measured every time. The relative tumor proliferation rate T/C (%) is used as an evaluation index.
as §1

[7] = 5 mg/kg i.p. once a day for 10 days
[8] = 15 mg/kg i.p. once a day for 10 days
[9] = NCPT-1.M1 15 mg/kg i.p. x9 days, paclitaxel 30 mg/kg, carboplatin 60 mg/kg i.p. once day 1

B1: NCPT-1.M1: MG+His6+NCPT-1 fusion protein, SEQ ID NO: 5 (protein)
chain: MGHHHHHHTLSSPNSKNEKALGRKINSWESSRSGHSFLSNLHLRNGELVIHEKGFYYIYSQTYFRFQEEIKENTKNDKQMVQYIYKYTSYPDPILLMKSARNSCWSKDAEYGLYSIYQGGIFELKENDRIFVSVTNEHLIDMDHEASFFGAFLVGGGGGGRVAAHITGTRGRSNT
modifications: NCPT-1.M1 polypeptide sequence
What does the source list for B1?
mice in which the tumors completely disappeared [1]: 16%; morphological features of apoptosis (MGG staining) [2]: obvious features of apoptosis were observed; relative tumor volume RTV [3, 7]: 1.39; tumor proliferation rate T/C(%) [3, 7]: 29.89%; Tumor volume TV beginning [3, 7]: 117 ± 20.4 mm^3; Tumor volume TV ending [3, 7]: 197 mm^3; relative tumor volume RTV [3, 8]: 0.12; Tumor volume TV beginning [3, 8]: 118 ± 21.0 mm^3; Tumor volume TV ending [3, 8]: 15 mm^3; evaluation of efficacy (T/C ≦40% and P<0.05 means being effective) ([3]; both dosage groups of NCPT-1.M1 (5, 15 mg/kg), wtTRAIL 15 mg/kg): effective; killing effect ([4]; 1 μg/ml alone, U266): < 20%; sensitivity of the cell line ([4]; U266 / U266B1): insensitive; cell survival rate ([5]; 1.2 ng/ml, 30 μmol/L zIETD-fmk added 1 h earlier): 100%; cell survival rate ([5]; 1.2 ng/ml, no inhibitor): 60%; cell survival rate ([5]; 10 ng/ml, 30 μmol/L zIETD-fmk added 1 h earlier): 90%; cell survival rate ([5]; 10 ng/ml, no inhibitor): 16%; Body weight(g) begining [6, 9]: 19.9 ± 3.08 g; Body weight(g) ending [6, 9]: 20.9 ± 3.32 g; RTV ([6]; same regimens): 7.32 ± 3.736; T/C ([6]; same regimens): 43.9%; Tumor size(mm^3) begining ([6]; same regimens, begining): 156 ± 82.6 mm^3; Tumor size(mm^3) ending ([6]; same regimens, ending): 867 ± 255.7 mm^3
